Measurements published in the nanobody polyreactivity screen of Harvey et al. (2022).

assay: yeast display, Sf9 membrane polyspecificity reagent, FACS + sequencing; frameworks hold sequencing errors
Summary of the method: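 Genes from sorted yeast were amplified by colony PCR, read by MiSeq 2 × 250 sequencing and filtered on CDR length. These cells carried a synthetic nanobody library in Saccharomyces cerevisiae BJ5465 and were sorted by FACS into low and high (top ~1%) gates on anti-HA and streptavidin fluorescence. Polyreactivity is labelled according to the gate of origin.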

Row | Sequence | polyreactivity (PSR sort gate)
1 | QDQHVESGGGLVQEGGSLRLSCASSSSTFEYYAMGWYRQPPGKERELVATISIDGRTNYADSVKGRFTISRDNAKNTVYLQMNSLKPEDTAVYYCAARPYWRHRYDYWVQGTQVTVSS | low polyreactivity
2 | QVQLQESGGLVQAGGSLRLSCAASGSISGRNVMGWYRQAPGKEREFVASITDGSSTNYADSVKGRVTISRDNAKNTVYLQMNSLKPKDTAVYYCAAYAQRAKSFGYWGRGTQVTVSS | low polyreactivity
3 | QVQLVESGGGLVQAGGSLRLSCAASGSIFKYNPMGWYRQAPGKEMELVATISGGGRTYYADSVKGRFTISRDNAKNTVYLQMNSLKPEDTAVYYCAARKRGTFTYDYWGQGTQVTVSS | high polyreactivity
4 | QVQLVESGGGLVQAGGSLRLSCAASGRIFGYYAMGWYRQAPGKERELVAPITKTVGGTYYADSVKGRFTISRDNAKNTVYLQMNSLKPEDTAVYYCAARVWTGNGRSKGAYDYWGQGTQVTVSS | high polyreactivity
5 | QVQIVESGGGLVQAGGSLRLSCAASGNNFRYNTMGWYRQAPGKERELVAVITRRGSSTYYADSVKGRCTISRDNAKNTVYLQMNRLKPEDTAVYYCAAAPYYVTLVTRRDYWGQGTQVTVSS | high polyreactivity
6 | QVQLVESGGGLVQAGGSLRLTCAASGRTFYYYAMGWYRQAPGKESELVAAINTRGVSTYYADSVKGRFTISRDNAKNTVYLQMNSLKPEDTAVYYCNKGFSYGRDYWGQGTQVTVSS | high polyreactivity
7 | QVQLVESGGGLVQAGGSLRLSCAASGRIFNLYAMGWYRQAPGKERELVAAINWSGDRTYYADSVKGRFTISRDNAKNTVYLQMYSLKPEDTAVYYCNADGLEIERYAYWYVFLGYDYWGQGTQVTVSS | low polyreactivity
8 | QVQLVESGGGLVQAGGSLRLSCAASGSIFGYYAMGWYRQAPGKERELVAAISTSGGRTYYADSVKGRFTISRDNAKNTVYFQMNSLKPEDTAVYYCAARVYSTSVVAYYYWGQGTQVTVSS | high polyreactivity
9 | QVQLVESGGGLVQAGGSLRLSCAASGFIFRRYAMGWYRQAPGKERELVARISTIGGNTFYADSVKGRFTISRDTAKNTVYLQMNSLKPEDTAVYYCATTGGPSWRKYYSWGQGTQVTVSS | high polyreactivity
10 | QVQLVESGGGLVQAGGSLRLSCAASGRIFIGYAMGWYRQAPGKERELVAAISWGGGSTFYADSVKGRFTISRDNAKNTVYLQMNSLKPEDTAVYYCNKVYRQRVVKGGYWGQGTQVTVSS | high polyreactivity
11 | QVQLVESGGGLVQAGGSLRLSCAASGLIFGWYAMGWYRQAPGKERELVAGISGSGGITYYADSVKGRFTISRDNAKNTVYLQMNSLKPEDTAVYYCAARPGYVHIDFDYWGQGTQVTVSS | low polyreactivity
12 | QVQLVESGGGLVQAGGSLRLSCAASGFTFYLNAMGWYRQAPGKERELVAAISYSDGSPYYADSVKGRFTISRDNAKNTVYLQRNSLKPEDTAVYYCAADTTDPGGAYQLMDYWRQGTQVTVSS | low polyreactivity
13 | QVQLVESGGGLVQAGCSLRLSCAASGRIFGQYAMGWYRQAPGKEREFVAGISTTGGSTYYADSVKGRFTISRDNAKNTVYLQMNSLKPEDTAVYYFAVRINWSRWYHYYTYNYWGQGTQVTVSS | high polyreactivity
14 | QVQLVESGGGLVQAGGSDRLSCAASGNTFYPNAMGWYRPAPGKERELVAAITTSGGTTYYADSVKGRFTISRDNAKNTVYLQMNSLKPEDTAVYYCAAYWSRDKYDYWGQGTQVTVSS | low polyreactivity
15 | QVQLVESGGGLVQSGGSLRLSCAASGLTFLNNALGWYRQAPGKERELVAAISDGGSPNYADSVKGRFTISRDNAKNTVFLQMNSLKPEDTAVYYCAAVYTSASYGSWGQGTQVTVSS | low polyreactivity
16 | QVQLVESGGGLVQAGGSLRLSCAASGRIFRYNAMGGYRQAPGKERELVAAITWRGGSTYYADSVKGRFTISRDNAKNTVYLQMNSLKPEDTAVYYCNKVDSLTFEYDYWGQGTQVTVSS | high polyreactivity
17 | QVQLVESGVGLVQAGGSLRLSCAASGFTFPYYAMGWYIQAPGKERELVAAISSGGRTNYADSVKGRFTISRDNAKNTVYLQMNSLKPEDTAVYDCATRSYVFAWEFNYWGQVTQVTVSS | high polyreactivity
18 | QVQLQESGGGLVQAGGSLRLSCAASGTISYAPHMGWYRQAPGKERELVAGITIGGTTYYADSVKGRFTISRDNANNTVYLQMNSLSPGDTAVYYCAAHSEQYTPFYYWGQGTQVTVSS | low polyreactivity
19 | QVQLVESAAGLVQAGGSLRLSCAASGRISHRNAMGWSRQAPGKERELVAAITSGGSTNYADSVKGRFTISRDNAKNTVYLQMNSLKPEDTAVYYCAARRLPSTWYIYWGQGTQVTVSS | low polyreactivity
20 | QVQLVESGGGLVQAGGSLRLSCAASGSTFGFNVMGWYRQAPGKERELVAVITSDGNTYYADSVKGRFTISRDNAKNTVYFQMNSLIPEDTAVYYCAVSELGTPYGYWGQGTQVTVSS | low polyreactivity
21 | QVQLVESGGGLVQAGGSLRLSCAASGSILYRYAMGWYRQAPGKERELVAGISKTGSSTYYADSVKGRFTISRDNAKNTVYLQMNSLKPEDTAVYYCNVRHGYSGKDYRYDYWGQGTQVTVSS | low polyreactivity
22 | QVQLVESGGGLVQAGGSLRLSCAASGSTFWYYAMGWYRQAPGKERELVAAITTGGDTTNYADSVKGRFTISRDNAKNTVYLQMNSLKPEDTAVYYCARDTGYDLIVLPDDSWGQGTQVTVSS | low polyreactivity

Row | Sequence | polyreactivity (PSR sort gate)
23 | QVQLVESGGGLVQAGGSLRLSCAASGLIFSRYAMGWYRQGPGKERELVAASSGGGGSTYYADSVKGRFTISRDNAKNTVYLQMNSLKPEDTAVYYSARKYTRKIPASDYWGQGTQVTVSS | high polyreactivity
24 | QVQLVESGGGLVQAGGSLRLSCAASGFTFWRYAMGWSRQAPGKERELVAAISRTGGRTYYADSVKGRFTISRDNAKITVYLQMTSLKPEDTAVYYCAAVKYETYRYNYDYWGQGTQVTVSS | high polyreactivity
25 | QVQLVESAGGLVQAGGSLPLSCAASGFTFISNAMGWYRQSPAKERELVAAISSSGGRTYYAVSVKGRFTISRDNAKNTVYLQMNSVKPEDTAVYYSNADRSLLYSRKIEYDYWGQGTKVTVSS | low polyreactivity
26 | QVQLVESGGGLGQAGGTLRLTCAASGSIFRTYAMGWYRQAPGKERELVAAITWSGGRTYYADSVKGRFTISRDNATNTVYLPMISLKPDDTAVYYCNAVYLAYGGDYWGQGTQVTVSS | high polyreactivity
27 | QVQLVESGGGLVQAGGSLRLSCAASGSIFRRYAMGWYRQAPGKERELVAAISGSAGSTYYADSVKGRFTISRDNAKNTVYLQMNSLKPEDTAVYYCKTDRSRSPGDVESASDIKRDYWGQGTQVTVSS | low polyreactivity
28 | QVQLVESGGGLVQAGGSLRLSCAASGRIFSYYAMGWYRQAPGKERELVATISGSGGSTYYADSVKGRFTNSRDNAKNNVYLQMNSLKPEDTAVYYCAARRSGRTRYYWGQGTQVTVSS | high polyreactivity
29 | QVQLVESGGGLVQAGGSLRLSCAASGRTFGKNAMGWYRQAPGKERELVAAIRYRTGSTYYADSVKGRFTISRDNAKNTVYLQMNSLKPEDTAVYYCAKVGSSPLYWGQGTQVTVSS | high polyreactivity
30 | QVQLVESGGGLVQAGGSLRLSCAASGYTFRYNTLGGYSQAPGKEREFVAAISSGVGNTYFAVSVKGRFTISRDNAKNTVYLQMNSLKPEDTAVYYCNADYKSSYYWYLWYNYWGQGTQVTVSS | low polyreactivity
31 | QVQLVESGGGLVQAGGSLRLSCAASGSIFLAYAMGWYRQAPGKERELVASTYYADSVKGRFTISRDNAKNTVYLQMNSLKPEDTAVYYCAADRIYSIYVSPYYSFGYWGQGTQVTVSS | low polyreactivity
32 | QVHLVESGGGLVQAGGSLRLSCAASGSIFVHNAMGWYRQAPGKESELVAGISARGASTYYADSVKGRFTISRDNAKNTVYLQMKSLKPEDTAVYYCAADRIPGYRVYGFYYWGQGTQVTVSS | low polyreactivity
33 | QVQLVESRGGLVQAGGSLRLSSAASGRTFRSYVMGWYTPAPGKERQLVAAITRSGGSTYYADSVKGRFTISRDNAKNTVYLQMNSLKPEDTAVYYCATDRWYYYPDYYPYGEYDYWGQGTQVTVSS | low polyreactivity
34 | QVQLVESGGGLVQAGGSLRLSCAAYGFIFLENDMGWYRQAPGKERELVASINSGSDTNYADSVKGRFTISRDNAKNTVYLQMNSLKPEDTAVYYCNASYNGVPARYDYWGQGTQVTVSS | low polyreactivity
35 | QVQLVESGGGLVQAGGSLRLSCAASGNIFGVYAMGWYRQAPGKERELVAAIRYSTVSTYYADSVKGRFTISRDNAKNTVYLQMNSLKPEDTAVYYCAAQRRRYLPGHYYYWGQGTQVTVSS | high polyreactivity
36 | QVQLVESGGGLVQAGGSLRLSCAASGRIFGPYAMGWYRQAPGKDRELVAAISASGGRTYDADSVKGRFTISRDNAKNTVYLQMNSLKPEDTAVYYCARRYWHSGWIFDYWGQGTQVTVSS | high polyreactivity
37 | QVQLVESGGGLVQAGGSLRLSCAASGFIFVPYAMGWYRQAPGKERELVATITWRGDSTYYADSVKGRFTISRDNAKNTVYLQMNSLKPEDTAVYYCAAVGPIRGYSSDEYWGQGTQVTVSS | low polyreactivity
38 | QVQLVESGGGLVQAGGSLRLSCAASGGTFVVYAMGWYRQAPGKERELVAAITWIGDSTYYADSVKGRFTISRDNAKNTVYLQMNSLKPEDTAVHYCNAEGWYYLTEYGYWGQGTQVTVSS | low polyreactivity
39 | QVQLVESGGGLVQAGGSLRLSCAASGSTIGKNVMGWYRQAPGKEREVVAAISARGGRSYYADSVKGRFTISRDIAKNTVYLQMNSLKPEDTAVYYCNTERSYTGTGRYRSSTAYGYWGQGTQVTVSS | high polyreactivity
40 | QVQLVESGGGLVQAGGSLRISCAASGSIFRGNAMGWYRQAHGKERELVAAITRGVSTYYADSVKGRFTISRDNAKNTVYLQMNSLKPEDTAVYYCAKPYWWGYYSWGQGSQVTVSS | high polyreactivity
41 | QVQLVESGGGLVQAGGSLGLSCAASGRSFYFYAMGWYRQAPGKERELVAALSRGGGTNYADSVKGRFTLSRDNATNTVYLQMNSLKPEDTAVYDCAARPGPYWTVTFRSPKYYYWGQGTQVTVSS | high polyreactivity
42 | QVQLVESGGGLVQAGGSLRLSCAASGFTFTGYAMGWYRQAPGKERELVAVISSRGGSTYYADSVKGRFTISRDNAKNTVYLQMNSLKPEDTAVYYCAARGYKGFSSPFGYWGQGTQVTVSS | high polyreactivity
43 | QVQLVESGGGLVQAGGSLRLSCAASGSTFQYNVMGWYRQAPGKERELVAAISRSGTRTSYADSVKGRFTISRDYAKNTVYLQMNTLKPEDTAVYYCAAVVYHRYYSGYYYWGQGTQVTVST | high polyreactivity
